# Data as given in the supplement of paper PMC9170038.
# Tested on: MS2 coat protein
# Experiment: apparent KD of MS2 coat protein; designed switch direction (-1 OFF switch, 1 ON switch): -1; higher = weaker reporter binding
# In short: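 Three titration conditions were used: no input, 200 uM small-molecule ligand, and an oligonucleotide input. In each, SNAP-549-labelled MS2 coat protein was raised from 0.7 or 1.5 nM, doubling, to 3 µM over designed RNA switches transcribed on Illumina chips by stalled E. coli RNA polymerase. Curve fits of normalised cluster fluorescence gave values whose per-design median over clusters is the apparent KD.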
# [1] = Eterna round: R95, input ligand: microRNA oligo, concentration not stated
# [2] = Eterna round: R95, input ligand: FMN 200 uM
# [3] = Eterna round: R95, input ligand: none
# [4] = input ligand: microRNA oligo, concentration not stated
Sequence,apparent KD of MS2 coat protein (input ligand: FMN 200 uM) [nM],apparent KD of MS2 coat protein (input ligand: none) [nM],apparent KD of MS2 coat protein [1] [nM],apparent KD of MS2 coat protein [2] [nM],apparent KD of MS2 coat protein [3] [nM],apparent KD of MS2 coat protein [4] [nM]
"UGUAAGGCAGAGGAUAUGGUUACUAGACGAGUACCAGAAGGCUGCACAUGAGGAUCACCCAUGUGAAAUCCACU [Eternabot (L1) Solution 72] (Eterna round: R97, puzzle: Exclusion 6)",80.7,34.7,–,–,–,–
"GCGCGAAGGUAGGAUAUCCGGGCAUCUUGCCGCGGAGAAGGACCCACAUGAGGAUCACCCAUGUGGUGAUCCUG [eternacac ex6r4 sub12] (Eterna round: R97, puzzle: Exclusion 6)",40.8,19.4,–,–,–,–
AAGCCACAUGAGGAUCACCCAUGUCAGGAUAUCUCGAAAAGCAUAGAAAUAUGCGAAGAGAGAAGGGACUACUC [ChP Ext 10-04-2015 #4] (puzzle: Exclusion 1),–,–,42.7,–,–,–
"AAAAGCCUAGGAUAUACUUGAGGAUCACCCAAGUAGGGUCGCAUGGACCCGUCCUCGUGUAGAAGGAGGAAAAG [Orreteceer] (Eterna round: R97, puzzle: Exclusion 3)",108,46.7,–,–,–,–
"CGGCGACAUGAGGAUCACCCAUGUGAGGAUAUGACGGGAAAAGCGUGAGCAGUUUGUGUCAGAAGGCGCGUAGG [salish99_ex1_r4_081] (Eterna round: R97, puzzle: Exclusion 1)",20.2,28.7,–,–,–,–
"CUUGUGUGAGGAUAUGAAUUACCUGGUCAAACAGGCUCCUGUCAGAAGGCACAUGAGGAUCACCCAUGUGGGCA [Dibilela] (Eterna round: R97, puzzle: Exclusion 4)",121,310,–,–,–,–
AAGAAACAUGAGGAUCACCCAUGUGAGGAUAUGUAAAAGAAAAGAAAAUAAAGAAGAAACAGAAGGCACAAAGG [Mat - Mod of Hog D21] (puzzle: Exclusion 1),–,–,39.1,51.8,31.8,–
"CGGGCGUGAGGAUAUCCAUCUGGAUCAGACUAGAUCCUGAUGGAGAAGGCACAUGAGGAUCACCCAUGUACCCG [Eli 4x 4.50] (Eterna round: R97, puzzle: Exclusion 4)",22.2,18.6,–,–,–,–
"GUCAUCAAACAUGGGAUAAACAUGAGGAUCACCCAUGUAUACAAGUUUUUUGCUCGUCUUAUAAUAAGUUUGAUGAC [Antenna 6 - Jieux - Sensor, turn-off variant 1] (Eterna round: R97, puzzle: Sensor, turn-off variant 1)",16.4,15.3,–,–,–,–
AAAAAGUGAGGAUAUGCAUAAGGACCCGGGAGGGAAAUAAAACAUGAGGAUCACCCAUGUAGAAGGCGCAAAAA [Exclss2-II] (puzzle: Exclusion 2),–,–,16,17.2,15.7,–
"CACCGUUACAGAGGAUAUGACACAUGAGGAUCACCCAUGUAAUAAAUGAGAAUUUCGAAUGUACCUCAGAAGGCUGGAACCGGC [Ostricism 78 - Jieux - Exclusion NG 2] (Eterna round: R96, puzzle: Exclusion NG 2)",61.2,38.7,–,–,–,31.5
CAAAAGGUAGGAUAUACGAAAAAAAAGGGUAGAAAAAAAACACAUGAGGAUCACCCAUGUAGAAGGACCAAAAC [salish99_ex2_r3_042] (puzzle: Exclusion 2),–,–,22.6,95.7,21.6,–
AUAUUAAUAUAGGAUAUCGAAUUUAUUAAUUAUCGAGAAGGAUAAACAUGAGGAUCACCCAUGUGGUAUCAUGG [Mat - Exclusion 6 - JL Mod - D39] (puzzle: Exclusion 6),–,–,256,–,–,–
"GGGCCCGGAGGAUAUACAAUCCCGGGCCGAAAGGUUUGGGUACAUGAGGAUCACCCAUGUAGAAGGCCGGGCCC [-40.9, -38.2 kcal A 24%, 5b bis,0] (Eterna round: R97, puzzle: Exclusion 2)",29.1,17.9,–,–,–,–
"GUAAACGAUCAGGAUAUAUCAAAUCAUAGCUUGAUAGAAGGGAUCACAUGAGGAUCACCCAUGUGAUCUUCUUA [Mat - Exclusion 6 - JL Mod - D36] (Eterna round: R97, puzzle: Exclusion 6)",13,10.9,–,–,–,–
"CCCACAGGCUUUUUGCUCGACAUGAGGAUCACCCAUGUUGAAUGGGUUGUGUGUGUGUGAUACAUAUAUAUGGUCCU [-25.5, -50.5 kcal, A 21%] (Eterna round: R97, puzzle: Sensor, turn-off variant 1)",142,158,–,–,–,–
"UUCAGUCUAGAGGAUAUGCUGGAUUAAUAUCUGGCAGAAGGCUGGACAUGAGGAUCACCCAUGUAAAUACUACC [Omei Ex6 A5] (Eterna round: R97, puzzle: Exclusion 6)",356,68.3,–,–,–,–

Sequence,apparent KD of MS2 coat protein (input ligand: FMN 200 uM) [nM],apparent KD of MS2 coat protein (input ligand: none) [nM],apparent KD of MS2 coat protein [1] [nM],apparent KD of MS2 coat protein [2] [nM],apparent KD of MS2 coat protein [3] [nM],apparent KD of MS2 coat protein [4] [nM]
CGAGAGCGAGGAUAUACACAACACCUCACUGUCAAGAAAGGACAUGAGGAUCACCCAUGUAGAAGGUGCAAAGC [Xecerevear] (puzzle: Exclusion 2),–,–,412,303,326,–
"UAGUUAUUCACAGGAUAUCGCCUCUUAUUACAUGAGGAUCACCCAUGUUUAUUUUGUUACAUGUUCGAGAAGGGUGUAGUCUUU [JR_ExcNG2_Sub046] (Eterna round: R96, puzzle: Exclusion NG 2)",439,535,–,–,–,436
"CUCAAGUUAGGAUAUCCAAACGACACGUGCGGACGUUCAACGGAGAAGGGACUUGAGGAUCACCCAAGUUAAAA [Riusbireis] (Eterna round: R97, puzzle: Exclusion 4)",137,45,–,–,–,–
"UUUAAUUUUUUUUUUUUACAAGCUUUUUGCUCGUCUUAUACAUGAGGAUCACCCAUGUGGGUAAGGGAUAAAUUAUC [JMF 37] (puzzle: Sensor v3, turn-off variant 2)",–,–,33.4,28.5,35.3,–
"ACAUGUCAUCGAGGAUAUUGUACACAUGAGGAUCACCCAUGUAUUCGGUUGCUCUAGCAUGAGUUCGAGAAGGCGAUGUACAUU [Ex NG2 #83] (Eterna round: R96, puzzle: Exclusion NG 2)",153,194,–,–,–,134
"AGUAACCGUCACGAAAGUGAUGGUUACACAAGCAAAUGUACAUGAGGAUCACCCAUGUCCUCAUUUGCUCGUCUUGU [Sensor 3 - 48] (puzzle: Sensor v3, turn-off variant 2)",–,–,398,101,121,–
AUGGACGCAGGAUAUACAUGAGGAUCACCCAUGUGAGGUAGGUAAGUAGGAAGUGAAGGUAGAAGGGCGAGAGA [JR_Exclu3_Sub096] (puzzle: Exclusion 3),–,–,59.4,–,–,–
CUGGUGUGAGGAUAUCAGGACACGUACGCGGGCAUGUCAAAUGAGAAGGCACAUGAGGAUCACCCAUGUGGGAC [Geve] (puzzle: Exclusion 4),–,–,26,–,–,–
"AUUAAACAUGUAGGAUAUGCGUGGCAAAGCUAUGCAGAAGGACAUGAGGAUCACCCAUGUAAAAGCGUCUGCGUACAGAUGCAA [Mat - Exclusion NG 1 - Mod of JL - D86] (Eterna round: R96, puzzle: Exclusion NG 1)",314,41.3,–,–,–,30.7
"AGUCGGUCAGGAUAUGCAGACGUAGACAUGAGGAUCACCCAUGUGACGUGGGCCUGGUUUGUAGAAGGGACGAGCA [EX5 #83] (Eterna round: R97, puzzle: Exclusion 5)",30.2,19.3,–,–,–,–
"GUUGCUACUGAGGAUAUUAUUUUACUCGACUGAUAAGAAGGCAGUACAUGAGGAUCACCCAUGUGGGUAGCCAG [Polaris16] (Eterna round: R97, puzzle: Exclusion 6)",64.7,19.3,–,–,–,–
"ACAUGAGGAUCACCCAUGUCUGGCGGGUCCUCUCCGGCUGUUGAGGAUAUAGUUCGGUAUCCGCGCUAGAAGGUGAGGGCCGGC [Aenatbe mod 20] (Eterna round: R96, puzzle: Exclusion NG 3)",21.3,16.5,–,–,–,14.6
"UACUGGACAGGAUAUGUUCUUGAGCACUUGAGGAUCACCCAAGUCAUCAAGAACUCAGGCACAGAAGGGUUUAUGU [salish99_ex5_r4_005] (Eterna round: R97, puzzle: Exclusion 5)",70.2,18.5,–,–,–,–
GCGCACUAAGUGAGGAUAUCGUUUAUUUUUAGGAUCGAGAAGGCACAUGAGGAUCACCCAUGUUUGACGUGCGC [JR_BMOE4_Sub099] (puzzle: Brourd's mod of Exclusion 4),–,–,17.9,–,–,–
"UUUAGUCGUGACAUGGGUGACAUGAGGAUCACCCAUGUCACAAGCUUCUCGCUCGUCUUAUAAUUAACCCAUGUCAC [LRO Sensor-off var1-14 mod of Stov1-13-A1 by Brourd] (Eterna round: R97, puzzle: Sensor, turn-off variant 1)",18.6,19.8,–,–,–,–
"GCGCACCUACCAAAAGGUAGGUCCACAUGAGGAUCACCCAUGUAGGAUAUCGAUUGCUUUGCAGUCGAGAAGGACAUGAUGCGC [JL ENG3 3.80 Mod 10] (Eterna round: R96, puzzle: Exclusion NG 3)",52.3,21.3,–,–,–,18.1
"UUAGGCGUCAUUGCUCGUCUUUUAUGGAGAUGACUGUUAACAUGAGGAUCACCCAUGUGUGUGGGAGCUUUGCAGUU [JR_SV3TOV2_Sub023] (puzzle: Sensor v3, turn-off variant 2)",–,–,568,213,270,–
